Assay results from publication PMC9482650, “Quantitative fragmentomics allow affinity mapping of interactomes” (Nature Communications, 2022).

What was measured:
Test in all cases: holdup assay
Design in all cases: key: below the threshold = too weak to quantify, mostly under pKd 3.1 to 4
Settings in all cases: plain residues with an end cap or a label only (N-terminal biotin on a linker: ado-ado)
Inadl_6, Q8NI35 = target: Inadl_6, Q8NI35
LNX1_3, Q8TBB1 = target: LNX1_3, Q8TBB1
Inadl_4, Q8NI35 = target: Inadl_4, Q8NI35
Inadl_4, Q8NI35, sequence (Q8NI35 547-651): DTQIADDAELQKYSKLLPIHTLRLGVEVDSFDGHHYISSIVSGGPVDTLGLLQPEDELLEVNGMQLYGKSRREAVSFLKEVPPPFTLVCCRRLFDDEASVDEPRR

APBA1_2, Q02410 = target: T1, APBA1_2, Q02410
T1 sequence (Q02410 742-832, limits assumed, looked up): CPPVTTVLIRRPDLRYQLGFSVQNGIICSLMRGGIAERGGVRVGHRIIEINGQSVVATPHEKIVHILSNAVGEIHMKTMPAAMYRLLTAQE

FRMPD2_1, Q68DX3 = target: FRMPD2_1, Q68DX3
FRMPD2_1, Q68DX3, sequence (Q68DX3 770-861): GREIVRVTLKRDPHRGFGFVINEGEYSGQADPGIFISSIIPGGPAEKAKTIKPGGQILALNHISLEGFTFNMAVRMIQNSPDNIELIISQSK

DLG1_1, Q12959 = target: DLG1_1, Q12959
MAGI1_2, Q96QZ7 = target: MAGI1_2, Q96QZ7
MAGI1_2, Q96QZ7, sequence (Q96QZ7 456-580): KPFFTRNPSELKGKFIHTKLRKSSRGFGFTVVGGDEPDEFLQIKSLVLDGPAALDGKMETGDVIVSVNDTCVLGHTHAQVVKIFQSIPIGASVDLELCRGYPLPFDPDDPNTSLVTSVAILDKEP

HTRA3, P83110 = target: T2, HTRA3, P83110
T2 sequence (P83110 354-453, limits assumed, looked up): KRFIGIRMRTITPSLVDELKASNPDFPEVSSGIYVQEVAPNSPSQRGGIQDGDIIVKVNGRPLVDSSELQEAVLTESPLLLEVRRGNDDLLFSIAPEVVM

DLG3_3, Q92796 = target: T3, DLG3_3, Q92796
T3 sequence (Q92796 374-475, limits assumed, looked up): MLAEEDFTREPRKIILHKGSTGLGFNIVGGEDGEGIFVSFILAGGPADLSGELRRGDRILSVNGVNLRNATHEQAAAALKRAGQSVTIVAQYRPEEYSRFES

LIN7C, Q9NUP9 = target: T4, LIN7C, Q9NUP9
T4 sequence (Q9NUP9 88-185, limits assumed, looked up): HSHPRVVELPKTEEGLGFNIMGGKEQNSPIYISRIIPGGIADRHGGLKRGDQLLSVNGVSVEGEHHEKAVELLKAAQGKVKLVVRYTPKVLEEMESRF

PARD3_3, Q8TEW0 = target: PARD3_3, Q8TEW0
PARD3_3, Q8TEW0, sequence (Q8TEW0 582-685): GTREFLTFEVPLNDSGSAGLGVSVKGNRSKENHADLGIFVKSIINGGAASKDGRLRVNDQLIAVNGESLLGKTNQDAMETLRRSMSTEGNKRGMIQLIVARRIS

DLG4_3, P78352 = target: DLG4_3, P78352
DLG4_3, P78352, sequence (P78352 306-403): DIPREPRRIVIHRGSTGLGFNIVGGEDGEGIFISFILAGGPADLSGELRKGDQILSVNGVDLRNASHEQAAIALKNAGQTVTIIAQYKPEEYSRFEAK

NHERF4_4, Q86UT5 = target: NHERF4_4, Q86UT5
NHERF4_4, Q86UT5, sequence (Q86UT5 464-550): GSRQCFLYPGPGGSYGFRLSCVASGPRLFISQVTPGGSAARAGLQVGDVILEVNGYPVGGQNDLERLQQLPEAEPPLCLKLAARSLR

GOPC, Q9HD26 = target: GOPC, Q9HD26
NHERF3_3, Q5T2W1 = target: T5, NHERF3_3, Q5T2W1
T5 sequence (Q5T2W1 238-333, limits assumed, looked up): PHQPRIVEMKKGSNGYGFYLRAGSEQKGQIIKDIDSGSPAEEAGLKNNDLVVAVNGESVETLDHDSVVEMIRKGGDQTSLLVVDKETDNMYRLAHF

LNX1_2, Q8TBB1 = target: LNX1_2, Q8TBB1
LNX1_2, Q8TBB1, sequence (Q8TBB1 371-470): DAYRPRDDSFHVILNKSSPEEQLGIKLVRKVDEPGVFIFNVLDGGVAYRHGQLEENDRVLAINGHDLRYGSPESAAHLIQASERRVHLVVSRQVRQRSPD

GORASP1, Q9BQQ3 = target: GORASP1, Q9BQQ3
GORASP1, Q9BQQ3, sequence (Q9BQQ3 1-208): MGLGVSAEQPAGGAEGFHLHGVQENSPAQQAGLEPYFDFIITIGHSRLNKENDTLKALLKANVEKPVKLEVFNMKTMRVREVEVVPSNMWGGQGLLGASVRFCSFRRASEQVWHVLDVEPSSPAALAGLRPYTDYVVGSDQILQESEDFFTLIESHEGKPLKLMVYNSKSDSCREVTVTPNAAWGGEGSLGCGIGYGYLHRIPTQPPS

FRMPD3, Q5JV73 = target: FRMPD3, Q5JV73
FRMPD3, Q5JV73, sequence (Q5JV73 12-100): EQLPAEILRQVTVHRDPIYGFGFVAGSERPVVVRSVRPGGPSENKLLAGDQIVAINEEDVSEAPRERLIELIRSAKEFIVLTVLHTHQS

SNTA1, Q13424 = target: T6, SNTA1, Q13424
T6 sequence (Q13424 82-180, limits assumed, looked up): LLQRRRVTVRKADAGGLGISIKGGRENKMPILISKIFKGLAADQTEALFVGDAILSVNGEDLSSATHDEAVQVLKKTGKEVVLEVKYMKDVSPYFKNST

MAGI3_2, Q5TCQ9 = target: MAGI3_2, Q5TCQ9
MAGI3_2, Q5TCQ9, sequence (Q5TCQ9 398-503): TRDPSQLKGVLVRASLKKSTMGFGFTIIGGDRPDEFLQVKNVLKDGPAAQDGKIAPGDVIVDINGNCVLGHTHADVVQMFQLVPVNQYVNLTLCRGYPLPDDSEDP

ARHGEF12, Q9NZN5-2 = target: ARHGEF12, Q9NZN5-2
ARHGEF12, Q9NZN5-2, sequence (Q9NZN5 other isoform, or with tags, fused parts or gaps): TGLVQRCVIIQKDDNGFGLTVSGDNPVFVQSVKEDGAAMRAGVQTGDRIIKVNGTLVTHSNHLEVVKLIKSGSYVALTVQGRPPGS

LIN7B, Q9HAP6 = target: T7, LIN7B, Q9HAP6
T7 sequence (Q9HAP6 88-185, limits assumed, looked up): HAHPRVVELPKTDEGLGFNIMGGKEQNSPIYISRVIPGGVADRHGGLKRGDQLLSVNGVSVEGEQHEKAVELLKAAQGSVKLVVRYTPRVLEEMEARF

GRIP2_3, Q9C0E4 = target: GRIP2_3, Q9C0E4
GRIP2_3, Q9C0E4, sequence (Q9C0E4 238-339): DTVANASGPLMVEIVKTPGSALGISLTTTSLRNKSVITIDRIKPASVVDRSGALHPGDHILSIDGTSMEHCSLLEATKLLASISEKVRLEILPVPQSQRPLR

Inadl_10, Q8NI35 = target: Inadl_10, Q8NI35
Inadl_10, Q8NI35, sequence (Q8NI35 1673-1763): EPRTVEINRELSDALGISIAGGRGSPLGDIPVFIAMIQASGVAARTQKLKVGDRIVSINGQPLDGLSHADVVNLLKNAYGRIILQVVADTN

Inadl_8, Q8NI35 = target: Inadl_8, Q8NI35
Inadl_8, Q8NI35, sequence (Q8NI35 1425-1530): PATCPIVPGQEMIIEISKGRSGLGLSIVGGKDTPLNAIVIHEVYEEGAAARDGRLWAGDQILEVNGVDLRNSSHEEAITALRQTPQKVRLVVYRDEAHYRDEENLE

MAST2, Q6P0Q8 = target: MAST2, Q6P0Q8
MAST2, Q6P0Q8, sequence (Q6P0Q8 1099-1202): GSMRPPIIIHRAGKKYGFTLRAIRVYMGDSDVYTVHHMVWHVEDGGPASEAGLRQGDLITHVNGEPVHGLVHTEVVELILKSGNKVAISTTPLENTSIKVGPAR

FRMPD2_2, Q68DX3 = target: FRMPD2_2, Q68DX3
FRMPD2_2, Q68DX3, sequence (Q68DX3 944-1038): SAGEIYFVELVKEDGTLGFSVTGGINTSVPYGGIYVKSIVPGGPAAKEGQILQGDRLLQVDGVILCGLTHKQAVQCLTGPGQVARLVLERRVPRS

MAGI2_3, Q86UL8 = target: MAGI2_3, Q86UL8
MAGI2_3, Q86UL8, sequence (Q86UL8 600-682): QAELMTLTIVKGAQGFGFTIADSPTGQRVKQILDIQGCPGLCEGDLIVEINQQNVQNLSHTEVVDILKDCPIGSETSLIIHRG

RHPN1, Q8TCX5 = target: T8, RHPN1, Q8TCX5
T8 sequence (Q8TCX5 508-602, limits assumed, looked up): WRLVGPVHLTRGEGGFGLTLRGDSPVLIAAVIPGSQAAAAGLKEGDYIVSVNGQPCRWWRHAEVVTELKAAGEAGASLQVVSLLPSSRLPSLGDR

Inadl_1, Q8NI35 = target: Inadl_1, Q8NI35
Inadl_1, Q8NI35, sequence (Q8NI35 113-229): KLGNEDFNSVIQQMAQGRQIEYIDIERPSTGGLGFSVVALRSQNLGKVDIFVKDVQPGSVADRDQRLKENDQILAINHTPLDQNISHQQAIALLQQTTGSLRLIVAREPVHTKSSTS

DLG2_2, Q15700 = target: DLG2_2, Q15700
DLG2_2, Q15700, sequence (Q15700 189-283): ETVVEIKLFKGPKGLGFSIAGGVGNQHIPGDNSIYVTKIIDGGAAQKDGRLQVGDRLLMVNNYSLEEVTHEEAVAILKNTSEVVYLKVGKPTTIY

LNX1_3, Q8TBB1, sequence (Q8TBB1 500-596): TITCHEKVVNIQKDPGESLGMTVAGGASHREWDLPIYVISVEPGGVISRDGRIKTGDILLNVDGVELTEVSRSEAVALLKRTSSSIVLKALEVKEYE
Inadl_6, Q8NI35, sequence (Q8NI35 1058-1167): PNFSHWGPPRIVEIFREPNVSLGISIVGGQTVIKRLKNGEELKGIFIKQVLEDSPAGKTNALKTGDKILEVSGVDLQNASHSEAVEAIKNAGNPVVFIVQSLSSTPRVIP

Binder	pKd (Inadl_6, Q8NI35)	pKd (LNX1_3, Q8TBB1)	pKd (Inadl_4, Q8NI35)	pKd (APBA1_2, Q02410)	pKd (FRMPD2_1, Q68DX3)	pKd (DLG1_1, Q12959)	pKd (MAGI1_2, Q96QZ7)	pKd (HTRA3, P83110)	pKd (DLG3_3, Q92796)	pKd (LIN7C, Q9NUP9)	pKd (PARD3_3, Q8TEW0)	pKd (DLG4_3, P78352)	pKd (NHERF4_4, Q86UT5)	pKd (GOPC, Q9HD26)	pKd (NHERF3_3, Q5T2W1)	pKd (LNX1_2, Q8TBB1)	pKd (GORASP1, Q9BQQ3)	pKd (FRMPD3, Q5JV73)	pKd (SNTA1, Q13424)	pKd (MAGI3_2, Q5TCQ9)	further results
QLGSPTADLA [SIPA1, Q96FS4]	below the threshold	below the threshold	below the threshold	below the threshold	below the threshold	below the threshold	below the threshold	below the threshold	below the threshold	3.69	below the threshold	below the threshold	below the threshold	below the threshold	below the threshold	below the threshold	below the threshold	below the threshold	below the threshold	below the threshold	pKd (ARHGEF12, Q9NZN5-2): below the threshold; pKd (LIN7B, Q9HAP6): 3.9; pKd (GRIP2_3, Q9C0E4): below the threshold; pKd (Inadl_10, Q8NI35): below the threshold; pKd (Inadl_8, Q8NI35): below the threshold; pKd (MAST2, Q6P0Q8): below the threshold; pKd (FRMPD2_2, Q68DX3): below the threshold; pKd (MAGI2_3, Q86UL8): 3.56; pKd (RHPN1, Q8TCX5): below the threshold; pKd (Inadl_1, Q8NI35): below the threshold; pKd (DLG2_2, Q15700): below the threshold
PSVYSRSQYV [CLDN8, P56748]	below the threshold	below the threshold	below the threshold	3.92	4.36	below the threshold	below the threshold	4.72	below the threshold	below the threshold	below the threshold	below the threshold	below the threshold	below the threshold	below the threshold	3.7	4.55	below the threshold	below the threshold	3.52	pKd (ARHGEF12, Q9NZN5-2): 4.19; pKd (LIN7B, Q9HAP6): below the threshold; pKd (GRIP2_3, Q9C0E4): below the threshold; pKd (Inadl_10, Q8NI35): below the threshold; pKd (Inadl_8, Q8NI35): 3.84; pKd (MAST2, Q6P0Q8): below the threshold; pKd (FRMPD2_2, Q68DX3): below the threshold; pKd (MAGI2_3, Q86UL8): below the threshold; pKd (RHPN1, Q8TCX5): below the threshold; pKd (Inadl_1, Q8NI35): below the threshold; pKd (DLG2_2, Q15700): below the threshold
GDSSRKEYFI [GYPC, P04921]	3.54	below the threshold	below the threshold	3.73	below the threshold	3.49	below the threshold	4.64	below the threshold	below the threshold	4.9	below the threshold	below the threshold	below the threshold	below the threshold	below the threshold	4.33	below the threshold	below the threshold	4.41	pKd (ARHGEF12, Q9NZN5-2): below the threshold; pKd (LIN7B, Q9HAP6): 3.97; pKd (GRIP2_3, Q9C0E4): below the threshold; pKd (Inadl_10, Q8NI35): below the threshold; pKd (Inadl_8, Q8NI35): below the threshold; pKd (MAST2, Q6P0Q8): 3.68; pKd (FRMPD2_2, Q68DX3): below the threshold; pKd (MAGI2_3, Q86UL8): below the threshold; pKd (RHPN1, Q8TCX5): below the threshold; pKd (Inadl_1, Q8NI35): 4.12; pKd (DLG2_2, Q15700): below the threshold
